Data reported in publication PMC8763920, “Unprotected peptide macrocyclization and stapling via a fluorine-thiol displacement reaction” (Nature Communications, 2022).
*1 amine or outer side, *2 acyl side, *3 side chain or, on linkers, in order; H or OH if unused. Where a SMILES comes first, the peptide text is derived from it. Bridges are numbered along the chain shown (N, C = ends). [ ]: non-standard residue; d: D form. X1 = O=C(CSCCCCCCSCC(=O)[*:2])[*:1]; Dap = NC[C@H](N)C(=O)O

assay: circular dichroism; details: water; pH ns; 25 °C; 70 uM

Question: Which helicity does the source give for CC(=O)N[C@@H](CCC(N)=O)C(=O)N[C@@H](CO)C(=O)N[C@@H](CCC(N)=O)C(=O)N[C@@H](CCC(N)=O)C(=O)N[C@H](C(=O)N[C@@H](Cc1ccccc1)C(=O)N[C@H]1CNC(=O)CSCCCCCCCCSCC(=O)NC[C@@H](C(=O)N[C@@H](CCC(N)=O)C(=O)N[C@@H](CC(N)=O)C(N)=O)NC(=O)[C@H](CC(C)C)NC(=O)[C@H](CC(C)C)NC(=O)[C@H](CCCNC(=N)N)NC(=O)[C@H](Cc2c[nH]c3ccccc23)NC(=O)[C@H](CC(C)C)NC(=O)[C@H](CC(N)=O)NC1=O)[C@@H](C)O here?
Answer: 42%

Question: Which helicity does the source give for CC(=O)N[C@@H](CCC(N)=O)C(=O)N[C@@H](CO)C(=O)N[C@@H](CCC(N)=O)C(=O)N[C@@H](CCC(N)=O)C(=O)N[C@H](C(=O)N[C@@H](Cc1ccccc1)C(=O)N[C@H]1CNC(=O)CSCCCCCCCCSCC(=O)NC[C@H](C(=O)N[C@@H](CCC(N)=O)C(=O)N[C@@H](CC(N)=O)C(N)=O)NC(=O)[C@H](CC(C)C)NC(=O)[C@H](CC(C)C)NC(=O)[C@H](CCCNC(=N)N)NC(=O)[C@H](Cc2c[nH]c3ccccc23)NC(=O)[C@H](CC(C)C)NC(=O)[C@H](CC(N)=O)NC1=O)[C@@H](C)O here?
Answer: 37%

Question: Which helicity does the source give for CC(=O)N[C@@H](CCC(N)=O)C(=O)N[C@@H](CO)C(=O)N[C@@H](CCC(N)=O)C(=O)N[C@@H](CCC(N)=O)C(=O)N[C@H](C(=O)N[C@@H](Cc1ccccc1)C(=O)N[C@H]1CNC(=O)CSCCCCCCCSCC(=O)NC[C@@H](C(=O)N[C@@H](CCC(N)=O)C(=O)N[C@@H](CC(N)=O)C(N)=O)NC(=O)[C@H](CC(C)C)NC(=O)[C@H](CC(C)C)NC(=O)[C@H](CCCNC(=N)N)NC(=O)[C@H](Cc2c[nH]c3ccccc23)NC(=O)[C@H](CC(C)C)NC(=O)[C@H](CC(N)=O)NC1=O)[C@@H](C)O here?
Answer: 36%

Question: For CC(=O)N[C@@H](CCC(N)=O)C(=O)N[C@@H](CO)C(=O)N[C@@H](CCC(N)=O)C(=O)N[C@@H](CCC(N)=O)C(=O)N[C@H](C(=O)N[C@@H](Cc1ccccc1)C(=O)N[C@H]1CNC(=O)CSCCCCCCCSCC(=O)NC[C@H](C(=O)N[C@@H](CCC(N)=O)C(=O)N[C@@H](CC(N)=O)C(N)=O)NC(=O)[C@H](CC(C)C)NC(=O)[C@H](CC(C)C)NC(=O)[C@H](CCCNC(=N)N)NC(=O)[C@H](Cc2c[nH]c3ccccc23)NC(=O)[C@H](CC(C)C)NC(=O)[C@H](CC(N)=O)NC1=O)[C@@H](C)O, which helicity is on record?
Answer: 40%

Question: Which helicity does the source give for CC(=O)N[C@@H](CCC(N)=O)C(=O)N[C@@H](CO)C(=O)N[C@@H](CCC(N)=O)C(=O)N[C@@H](CCC(N)=O)C(=O)N[C@H](C(=O)N[C@@H](Cc1ccccc1)C(=O)N[C@H]1CNC(=O)CSCc2ccc(cc2)-c2ccc(cc2)CSCC(=O)NC[C@@H](C(=O)N[C@@H](CCC(N)=O)C(=O)N[C@@H](CC(N)=O)C(N)=O)NC(=O)[C@H](CC(C)C)NC(=O)[C@H](CC(C)C)NC(=O)[C@H](CCCNC(=N)N)NC(=O)[C@H](Cc2c[nH]c3ccccc23)NC(=O)[C@H](CC(C)C)NC(=O)[C@H](CC(N)=O)NC1=O)[C@@H](C)O here?
Answer: 16%

Question: Which helicity does the source give for CC(=O)N[C@@H](CCC(N)=O)C(=O)N[C@@H](CO)C(=O)N[C@@H](CCC(N)=O)C(=O)N[C@@H](CCC(N)=O)C(=O)N[C@H](C(=O)N[C@@H](Cc1ccccc1)C(=O)N[C@H]1CNC(=O)CSCc2ccc(cc2)-c2ccc(cc2)CSCC(=O)NC[C@H](C(=O)N[C@@H](CCC(N)=O)C(=O)N[C@@H](CC(N)=O)C(N)=O)NC(=O)[C@H](CC(C)C)NC(=O)[C@H](CC(C)C)NC(=O)[C@H](CCCNC(=N)N)NC(=O)[C@H](Cc2c[nH]c3ccccc23)NC(=O)[C@H](CC(C)C)NC(=O)[C@H](CC(N)=O)NC1=O)[C@@H](C)O here?
Answer: 18%

Question: With CC[C@H](C)[C@@H]1NC(=O)[C@@H](NC(=O)[C@H](CCC(=O)O)NC(=O)[C@@H]2CCCN2C(=O)[C@H](CC(N)=O)NC(=O)[C@H](CCC(=O)O)NC(C)=O)CNC(=O)CSCc2ccc(cc2)CSCC(=O)NC[C@@H](C(=O)N[C@@H](Cc2c[nH]cn2)C(=O)N[C@H](C(=O)N[C@@H](CCC(N)=O)C(=O)N[C@@H](CCCNC(=N)N)C(=O)N[C@H](C(=O)N[C@@H](CCSC)C(N)=O)C(C)C)C(C)C)NC(=O)[C@H](CC(=O)O)NC(=O)[C@H](CC(C)C)NC1=O as the compound, how does the helicity read?
Answer: 17%

Question: For CC[C@H](C)[C@@H]1NC(=O)[C@@H](NC(=O)[C@H](CCC(=O)O)NC(=O)[C@@H]2CCCN2C(=O)[C@H](CC(N)=O)NC(=O)[C@H](CCC(=O)O)NC(C)=O)CNC(=O)CSCc2cccc(c2)CSCC(=O)NC[C@@H](C(=O)N[C@@H](Cc2c[nH]cn2)C(=O)N[C@H](C(=O)N[C@@H](CCC(N)=O)C(=O)N[C@@H](CCCNC(=N)N)C(=O)N[C@H](C(=O)N[C@@H](CCSC)C(N)=O)C(C)C)C(C)C)NC(=O)[C@H](CC(=O)O)NC(=O)[C@H](CC(C)C)NC1=O, which helicity is on record?
Answer: 46%

Question: Which helicity does the source give for CC[C@H](C)[C@@H]1NC(=O)[C@@H](NC(=O)[C@H](CCC(=O)O)NC(=O)[C@@H]2CCCN2C(=O)[C@H](CC(N)=O)NC(=O)[C@H](CCC(=O)O)NC(C)=O)CNC(=O)CSCc2cccc(c2)CSCC(=O)NC[C@H](C(=O)N[C@@H](Cc2c[nH]cn2)C(=O)N[C@H](C(=O)N[C@@H](CCC(N)=O)C(=O)N[C@@H](CCCNC(=N)N)C(=O)N[C@H](C(=O)N[C@@H](CCSC)C(N)=O)C(C)C)C(C)C)NC(=O)[C@H](CC(=O)O)NC(=O)[C@H](CC(C)C)NC1=O here?
Answer: 44%

Question: With CC[C@H](C)[C@@H]1NC(=O)[C@H](NC(=O)[C@H](CCC(=O)O)NC(=O)[C@@H]2CCCN2C(=O)[C@H](CC(N)=O)NC(=O)[C@H](CCC(=O)O)NC(C)=O)CNC(=O)CSCc2ccc(cc2)CSCC(=O)NC[C@H](C(=O)N[C@@H](Cc2c[nH]cn2)C(=O)N[C@H](C(=O)N[C@@H](CCC(N)=O)C(=O)N[C@@H](CCCNC(=N)N)C(=O)N[C@H](C(=O)N[C@@H](CCSC)C(N)=O)C(C)C)C(C)C)NC(=O)[C@H](CC(=O)O)NC(=O)[C@H](CC(C)C)NC1=O as the compound, how does the helicity read?
Answer: 19%

Question: For CC[C@H](C)[C@@H]1NC(=O)[C@H](NC(=O)[C@H](CCC(=O)O)NC(=O)[C@@H]2CCCN2C(=O)[C@H](CC(N)=O)NC(=O)[C@H](CCC(=O)O)NC(C)=O)CNC(=O)CSCc2cccc(c2)CSCC(=O)NC[C@@H](C(=O)N[C@@H](Cc2c[nH]cn2)C(=O)N[C@H](C(=O)N[C@@H](CCC(N)=O)C(=O)N[C@@H](CCCNC(=N)N)C(=O)N[C@H](C(=O)N[C@@H](CCSC)C(N)=O)C(C)C)C(C)C)NC(=O)[C@H](CC(=O)O)NC(=O)[C@H](CC(C)C)NC1=O, which helicity is on record?
Answer: 8%

Question: Which helicity does the source give for CC[C@H](C)[C@@H]1NC(=O)[C@H](NC(=O)[C@H](CCC(=O)O)NC(=O)[C@@H]2CCCN2C(=O)[C@H](CC(N)=O)NC(=O)[C@H](CCC(=O)O)NC(C)=O)CNC(=O)CSCc2cccc(c2)CSCC(=O)NC[C@H](C(=O)N[C@@H](Cc2c[nH]cn2)C(=O)N[C@H](C(=O)N[C@@H](CCC(N)=O)C(=O)N[C@@H](CCCNC(=N)N)C(=O)N[C@H](C(=O)N[C@@H](CCSC)C(N)=O)C(C)C)C(C)C)NC(=O)[C@H](CC(=O)O)NC(=O)[C@H](CC(C)C)NC1=O here?
Answer: 13%

Question: For CC[C@H](C)[C@@H]1NC(=O)[C@@H](NC(=O)[C@H](CCC(=O)O)NC(=O)[C@@H]2CCCN2C(=O)[C@H](CC(N)=O)NC(=O)[C@H](CCC(=O)O)NC(C)=O)CNC(=O)CSCCCCCCSCC(=O)NC[C@@H](C(=O)N[C@@H](Cc2c[nH]cn2)C(=O)N[C@H](C(=O)N[C@@H](CCC(N)=O)C(=O)N[C@@H](CCCNC(=N)N)C(=O)N[C@H](C(=O)N[C@@H](CCSC)C(N)=O)C(C)C)C(C)C)NC(=O)[C@H](CC(=O)O)NC(=O)[C@H](CC(C)C)NC1=O (Ac-ENPE[Dap]ILD[Dap]HVQRVM-NH2; linker 5-9 via X1), which helicity is on record?
Answer: 29%
